# Experimental data from IntAct's records for PubMed 22118466.
# B1: Vesicle-associated membrane protein 8 (Mus musculus), O70404 (parent)
# chain: MEEASGSAGNDRVRNLQSEVEGVKNIMTQNVERILSRGENLDHLRNKTEDLEATSEHFKTTSQKVARKFWWKNVKMIVIICVIVLIIVILIILFATGTIPT
# partner: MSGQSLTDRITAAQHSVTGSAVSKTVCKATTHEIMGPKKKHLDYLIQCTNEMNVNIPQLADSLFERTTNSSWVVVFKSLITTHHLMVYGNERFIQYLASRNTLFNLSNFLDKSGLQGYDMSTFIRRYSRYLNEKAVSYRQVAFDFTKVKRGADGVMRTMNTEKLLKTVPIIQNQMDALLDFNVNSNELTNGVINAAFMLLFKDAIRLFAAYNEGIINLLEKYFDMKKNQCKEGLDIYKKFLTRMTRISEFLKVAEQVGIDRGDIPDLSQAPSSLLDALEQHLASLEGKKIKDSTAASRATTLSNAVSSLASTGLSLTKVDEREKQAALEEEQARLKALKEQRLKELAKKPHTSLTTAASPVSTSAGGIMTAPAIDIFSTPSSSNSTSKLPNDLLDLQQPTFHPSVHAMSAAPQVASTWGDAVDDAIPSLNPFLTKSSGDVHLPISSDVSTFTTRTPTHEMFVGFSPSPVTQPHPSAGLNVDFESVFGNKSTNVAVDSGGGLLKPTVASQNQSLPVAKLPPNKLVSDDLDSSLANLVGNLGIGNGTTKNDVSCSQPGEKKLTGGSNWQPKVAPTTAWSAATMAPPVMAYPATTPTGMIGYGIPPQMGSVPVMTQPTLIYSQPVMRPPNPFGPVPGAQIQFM
# B2: Phosphatidylinositol-binding clathrin assembly protein (Rattus norvegicus (Rat)), O55012 (parent)
# chain: B1 partner
# partner: B1 chain
# Variants of: B1
# Conditions: with pical_rat Picalm, O55012
row,Variant,effect of a mutation on the interaction
1,K24A;M27A,disrupting interaction
2,L16P;V23P,disrupting interaction

# Variants of: B2
# Conditions: with vamp8_mouse Vamp8, O70404
row,Variant,effect of a mutation on the interaction
1,F240A,disrupting interaction
2,L251S,disrupting interaction
3,D224K,disrupting interaction
4,I247D,disrupting interaction
5,L219S,disrupting interaction

# Variants of: B2
# Conditions: with vamp8_mouse Vamp8, O70404
# Remark: another data set of the same source
row,Variant,effect of a mutation on the interaction
1,M244K,disrupting interaction
